In patent US7803377B2, “Anti-DLL4 antibodies and methods using same” (Genentech, Inc., priority 2006, dated 2010):

Columns and labels:
[1] = molecular target: T1, DLL1 (Homo sapiens, UniProt O00548); experiment: ELISA binding to coated purified recombinant proteins; conditions: plates coated with recombinant protein 1 μg/ml
T1 sequence (O00548 18-723): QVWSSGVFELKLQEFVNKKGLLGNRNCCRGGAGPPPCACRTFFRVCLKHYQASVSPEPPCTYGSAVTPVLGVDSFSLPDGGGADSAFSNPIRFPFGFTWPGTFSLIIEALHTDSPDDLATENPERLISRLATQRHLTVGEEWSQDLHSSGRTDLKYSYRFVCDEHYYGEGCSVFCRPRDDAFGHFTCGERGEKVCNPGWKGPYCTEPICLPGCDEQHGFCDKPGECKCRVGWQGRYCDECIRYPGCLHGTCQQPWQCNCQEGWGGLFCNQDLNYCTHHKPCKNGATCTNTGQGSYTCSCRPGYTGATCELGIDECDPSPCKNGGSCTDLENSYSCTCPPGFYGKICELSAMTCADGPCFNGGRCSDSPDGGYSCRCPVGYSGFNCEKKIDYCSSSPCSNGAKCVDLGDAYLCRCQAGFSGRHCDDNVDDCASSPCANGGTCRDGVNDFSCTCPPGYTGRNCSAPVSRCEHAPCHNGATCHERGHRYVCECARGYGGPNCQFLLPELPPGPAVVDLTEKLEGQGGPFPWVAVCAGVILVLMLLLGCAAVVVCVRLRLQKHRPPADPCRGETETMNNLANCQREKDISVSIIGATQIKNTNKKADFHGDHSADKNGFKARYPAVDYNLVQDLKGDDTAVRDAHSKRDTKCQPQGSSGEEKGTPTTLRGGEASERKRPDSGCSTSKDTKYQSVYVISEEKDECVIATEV
Method: 96-well Nunc Maxisorp plates were coated with purified recombinant proteins as indicated (1 μg/ml). […] Bound antibodies were detected with anti-human antibody HRP conjugate using TMB as substrate and OD 450 nm absorbance measurement. Anti-HER2 and recombinant ErbB2-ECD were used as assay control (FIG. 11b).

[2] = test system: VEGFR2; experiment: Real-time quantitative RT-PCR of VEGFR2 expression in HUVECs; type: cell-based, human; conditions: 3-D fibrin gel culture of HUVECs (7 d); anti-DLL4 antibody 5 μg/ml, DBZ 0.08 μM
Method: RNA extraction and Real-time quantitative RT-PCR. Extraction of total RNA from HUVECs in 2-D culture was done using RNeasy® Mini Kit (Qiagen) as per instructions of the manufacturer. To extract total RNA from HUVECs growing in fibrin gels, fibrin gels were treated with 10× trypsin-EDTA (Gibco) for 5 min to remove the top layer fibroblasts, followed by neutralization with 10% FBS in PBS. The gel clots were then removed from tissue culture wells and subjected to centrifugation (10K for 5 min) in microtubes to remove excessive fluid. The resulting gel “pellets” were lysed with lysis buffer (RNeasy® Mini Kit), and further processed as with HUVECs in 2-D culture. The quality of RNA was assessed using RNA 6000 Nano Chips and the Agilent 2100 Bioanalyzer (Agilent Technologies). Real-time quantitative RT-PCR reactions were done in triplicate using 7500 Real Time PCR System (Applied Biosystems). Human GAPDH was used as reference gene for normalization. The expression levels are expressed as the mean (±SEM) fold mRNA changes relative to control from 3 separate determinations. The forward and reverse primer and probe sequences for VEGFR2, TGFβ2 and GAPDH were as follows.
Therefore, while VEGF can act upstream of DLL4/Notch pathway, DLL4/Notch is capable of fine-tuning the response through negatively regulating VEGFR2 expression.

[3] = test system: human colorectal cancer SW620; experiment: Tumor model SW620; type: in vivo, mouse; conditions: 5 mg/kg, IP, twice weekly after establishment of the tumors
Method: Tumor models. Beige nude female mice of 8- to 10-week-old were used. To obtain subcutaneous tumors, mice were injected with 0.1 ml cell suspension containing 50% matrigel (BD Bioscience) into the right posterior flank. 5×10^6 human colon cancer HM7 cells, 10×10^6 human colon carcinoma Colo205 cells, 10×10^6 human lung carcinoma Calu6 cells, 10×10^6 human lung carcinoma MV-522 cells, 10×10^6 mouse leukemia WEHI-3 cells, 10×10^6 mouse lymphoma EL4 cells, 10×10^6 human ovarian cancer SK-OV-3 X1 cells, 10×06 mouse lung cancer LL2 cells, 10×10^6 leukemia/lymphoma EL4 cells, or 10×10^6 non-small lung cancer H1299 cells were injected into each mouse. For human melanoma MDA-MB-435 model, mice were injected into the mammary fat pad with 0.1 ml cell (5×10^6) suspension containing 50% matrigel. […] For the following tumor models, each test mouse received a subcutaneous tumor fragment (1 mm^3) implanted in the right flank: non-small lung cancer SKMES-1, human breast cancer MX-1, human colorectal cancer SW620 and human adenocarcinoma LS174T. The tumor growth was quantitated by caliper measurements. Tumor volume (mm^3) was determined by measuring the length (l) and width (w) and calculating the volume (V=lw2/2). 10 to 15 animals were included in each group. Statistical comparison of treatment groups was performed using two-tailed Student's t-test. […]

[4] = test system: small intestines; experiment: Histology and immunohistochemistry of mouse intestines; type: in vivo; conditions: anti-DLL4 antibody 10 mg/kg, twice weekly for 6 weeks
Method: FIG. 10: DLL4/Notch was dispensable in the homeostasis of mouse intestine. Immunohistochemical studies of small intestines from control (a, d, g, j), anti-DLL4 antibody (10 mg/kg, twice weekly for 6 weeks) (b, e, h, k), and DBZ treated (30 μmol/kg daily for 5 days) (c, f, i, l) mice.
Histology and immunohistochemistry of mouse intestines. Formalin-fixed and paraffin-embedded mouse small intestine tissues were sectioned at 3 μm thickness. Histochemical identification of intestinal cell types was performed with Alcian blue as recommended by the manufacturer (PolyScientific). For anti-Ki67 staining, sections were pretreated with Target Retrieval Solution (S1700, DAKO), and incubated with rabbit anti-Ki67 (1:200, clone SP6, Neomarkers). Secondary goat anti-rabbit at 7.5 µg/ml (Vector labs) was detected with the Vectastain ABC Elite Kit (Vector labs). All Ki67 stained sections were counterstained with Mayer's hematoxylin. For HES-1 staining, anti-rat HES-1 (clone NM1, MBL, International), followed by TSA-HRP, was used.
A major concern about global inhibition of Notch is that it may be deleterious, given the pleiotropic roles of Notch signaling in regulating the homeostasis of postnatal self-renewal systems. For instance, Notch signaling is required to maintain undifferentiated crypt progenitor cells in intestines (van Es, J. H. et al. Nature 435, 959-63 (2005); Fre, S. et al. Nature 435, 964-8 (2005)). Indeed, γ-secretase inhibitors, which would indiscriminately block all Notch activities, cause unwanted side effects in rodents duo to a massive increase in goblet cells within the crypt compartment (Milano, J. et al. Toxicol Sci 82, 341-58 (2004); Wong, G. T. et al. J Biol Chem 279, 12876-82 (2004)). We examined the small intestines of mice treated with anti-DLL4 Mab by immunohistochemistry analyses.

## YW26.82: affinity matured anti-DLL4 monoclonal antibody; HVR-H1/H2/H3 SEQ ID NO:1, 8, 9; HVR-L1/L2/L3 SEQ ID NO:10, 11, 18
[1]
  binding by ELISA: did not delectably bind
[2]
  VEGFR2 expression on Notch blockade: upregulation of VEGFR2
[3]
  tumor growth, single agent: inhibited tumor growth alone
[4]
  epithelial crypt cell differentiation or proliferation in small intestine: entirely absent
  expression of Notch target gene HES-1 in transit amplifying (TA) population: did not alter the expression of the Notch target gene HES-1
[4]; listed as anti-DLL4 Mab
  epithelial crypt cell differentiation or proliferation in small intestine: no differences in epithelial crypt cell differentiation or proliferation profiles
